One test has as its target T1, recombinant Aβ1-42.
T1 construct: Coated at 0.5 µg/ml on ELISA plates; also called Amyloid Beta (Aβ1-42)
The test can be described thus: indirect ELISA, plates coated with recombinant Aβ1-42. In general terms: ELISA stands for enzyme-linked immunosorbent assay.

Test [1] has as its target T2, recombinant murine transferrin receptor 1 (mTfR1), extracellular domain fused to a His-tag (murine, UniProt Q62351 89-763).
T2 construct: Position of the His-tag (N or C) unknown; also called recombinant mTfR1; murine TfR1; not shown: His-tag
The test can be described thus: BLI (Octet), mTfR1 captured on holo-transferrin sensors, analyte 50 nM.

T2 sequence (Q62351 89-763): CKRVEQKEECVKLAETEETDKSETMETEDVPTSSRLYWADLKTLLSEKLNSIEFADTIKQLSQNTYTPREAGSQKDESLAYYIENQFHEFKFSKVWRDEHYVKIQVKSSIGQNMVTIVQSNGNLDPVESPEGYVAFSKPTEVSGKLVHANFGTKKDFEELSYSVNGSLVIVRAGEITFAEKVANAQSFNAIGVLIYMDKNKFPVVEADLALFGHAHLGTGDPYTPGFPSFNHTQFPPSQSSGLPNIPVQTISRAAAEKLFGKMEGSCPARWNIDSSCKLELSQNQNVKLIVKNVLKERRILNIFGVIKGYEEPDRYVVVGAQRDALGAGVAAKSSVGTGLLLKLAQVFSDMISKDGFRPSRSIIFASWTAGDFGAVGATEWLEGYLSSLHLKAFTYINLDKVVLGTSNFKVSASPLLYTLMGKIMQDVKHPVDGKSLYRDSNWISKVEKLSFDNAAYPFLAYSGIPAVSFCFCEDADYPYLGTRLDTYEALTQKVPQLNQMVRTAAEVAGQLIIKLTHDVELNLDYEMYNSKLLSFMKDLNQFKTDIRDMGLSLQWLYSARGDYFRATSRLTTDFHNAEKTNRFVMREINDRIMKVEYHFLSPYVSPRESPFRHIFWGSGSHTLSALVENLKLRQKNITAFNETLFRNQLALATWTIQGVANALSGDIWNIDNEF
T1 sequence (peptide, as listed by the source): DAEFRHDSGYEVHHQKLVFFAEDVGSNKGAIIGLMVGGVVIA

B1: mAb158-scLc-8D3-Ig.9 (bispecific antibody, human IgG1, kappa)
heavy: not shown
chain: DIVMTQAPLSLPVSLGDQASISCRSSQSIVHSNGNTYLEWYLQKPGQSPKLLIYKVSNRFSGVPDRFSGSGSGTDFTLKISRVEAEDLGIYYCFQGSHVPPTFGGGTKLEIKRADAAPTVSIFPPSSEQLTSGGASVVCFLNNFYPKDINVKWKIDGSERQNGVLNSWTDQDSKDSTYSMSSTLTLTKDEYERHNSYTCEATHKTSTSPIVKSFNRNECGGGGSGGGGSGGGGSGGGGSEVQLVESGGGLVQPGNSLTLSCVASGFTFSNYGMHWIRQAPKKGLEWIAMIYYDSSKMNYADTVKGRFTISRDNSKNTLYLEMNSLRSEDTAMYYCAVPTSHYVVDVWGQGVSVTVSSGGGGSGGGGSGGGGSDIQMTQSPASLSASLEEIVTITCQASQDIGNWLAWYQQKPGKSPQLLIYGATSLADGVPSRFSGSRSGTQFSLKISRVQVEDIGIYYCLQAYNTPWTFGGGTKLELKRGGGGSGGGGSGGGGSGGGGSDIVMTQAPLSLPVSLGDQASISCRSSQSIVHSNGNTYLEWYLQKPGQSPKLLIYKVSNRFSGVPDRFSGSGSGTDFTLKISRVEAEDLGIYYCFQGSHVPPTFGGGTKLEIKRADAAPTVSIFPPSSEQLTSGGASVVCFLNNFYPKDINVKWKIDGSERQNGVLNSWTDQDSKDSTYSMSSTLTLTKDEYERHNSYTCEATHKTSTSPIVKSFNRNEC
notes: Format [LC-L1-scBM-L2-LC]
On to B1, for which the binding result (with recombinant Aβ1-42; in test [1]) was “binds” in each case.

B2: mAb158-scLc-8D3-Ig.7 (bispecific antibody, human IgG1, kappa)
heavy: not shown
chain: DIVMTQAPLSLPVSLGDQASISCRSSQSIVHSNGNTYLEWYLQKPGQSPKLLIYKVSNRFSGVPDRFSGSGSGTDFTLKISRVEAEDLGIYYCFQGSHVPPTFGGGTKLEIKRADAAPTVSIFPPSSEQLTSGGASVVCFLNNFYPKDINVKWKIDGSERQNGVLNSWTDQDSKDSTYSMSSTLTLTKDEYERHNSYTCEATHKTSTSPIVKSFNRNECGGGGSGGGGSEVQLVESGGGLVQPGNSLTLSCVASGFTFSNYGMHWIRQAPKKGLEWIAMIYYDSSKMNYADTVKGRFTISRDNSKNTLYLEMNSLRSEDTAMYYCAVPTSHYVVDVWGQGVSVTVSSGGGGSGGGGSGGGGSDIQMTQSPASLSASLEEIVTITCQASQDIGNWLAWYQQKPGKSPQLLIYGATSLADGVPSRFSGSRSGTQFSLKISRVQVEDIGIYYCLQAYNTPWTFGGGTKLELKRGGGGSGGGGSDIVMTQAPLSLPVSLGDQASISCRSSQSIVHSNGNTYLEWYLQKPGQSPKLLIYKVSNRFSGVPDRFSGSGSGTDFTLKISRVEAEDLGIYYCFQGSHVPPTFGGGTKLEIKRADAAPTVSIFPPSSEQLTSGGASVVCFLNNFYPKDINVKWKIDGSERQNGVLNSWTDQDSKDSTYSMSSTLTLTKDEYERHNSYTCEATHKTSTSPIVKSFNRNEC
notes: Format [LC-L1-scBM-L2-LC]
For B2, the binding result (in the test with recombinant Aβ1-42; in test [1]) was “binds” each time.

B3: mAb158-scLc-8D3-Ig.8 (bispecific antibody, human IgG1, kappa)
heavy: not shown
chain: DIVMTQAPLSLPVSLGDQASISCRSSQSIVHSNGNTYLEWYLQKPGQSPKLLIYKVSNRFSGVPDRFSGSGSGTDFTLKISRVEAEDLGIYYCFQGSHVPPTFGGGTKLEIKRADAAPTVSIFPPSSEQLTSGGASVVCFLNNFYPKDINVKWKIDGSERQNGVLNSWTDQDSKDSTYSMSSTLTLTKDEYERHNSYTCEATHKTSTSPIVKSFNRNECGGGGSGGGGSGGGGSEVQLVESGGGLVQPGNSLTLSCVASGFTFSNYGMHWIRQAPKKGLEWIAMIYYDSSKMNYADTVKGRFTISRDNSKNTLYLEMNSLRSEDTAMYYCAVPTSHYVVDVWGQGVSVTVSSGGGGSGGGGSGGGGSDIQMTQSPASLSASLEEIVTITCQASQDIGNWLAWYQQKPGKSPQLLIYGATSLADGVPSRFSGSRSGTQFSLKISRVQVEDIGIYYCLQAYNTPWTFGGGTKLELKRGGGGSGGGGSGGGGSDIVMTQAPLSLPVSLGDQASISCRSSQSIVHSNGNTYLEWYLQKPGQSPKLLIYKVSNRFSGVPDRFSGSGSGTDFTLKISRVEAEDLGIYYCFQGSHVPPTFGGGTKLEIKRADAAPTVSIFPPSSEQLTSGGASVVCFLNNFYPKDINVKWKIDGSERQNGVLNSWTDQDSKDSTYSMSSTLTLTKDEYERHNSYTCEATHKTSTSPIVKSFNRNEC
notes: Format [LC-L1-scBM-L2-LC]
Consider B3, for which the binding result (with recombinant Aβ1-42; in test [1]) was “binds” each time.

B4: mAb158-scLc-15G11-1-Ig.1 (bispecific antibody, human IgG1, kappa)
heavy: not shown
chain: DIVMTQAPLSLPVSLGDQASISCRSSQSIVHSNGNTYLEWYLQKPGQSPKLLIYKVSNRFSGVPDRFSGSGSGTDFTLKISRVEAEDLGIYYCFQGSHVPPTFGGGTKLEIKRTVAAPSVFIFPPSDEQLKSGTASVVCLLNNFYPREAKVQWKVDNALQSGNSQESVTEQDSKDSTYSLSSTLTLSKADYEKHKVYACEVTHQGLSSPVTKSFNRGECGGGGSGGGGSGGGGSEVQLVQSGAEVKKPGASVKVSCKASGYTFTSYWMHWVRQAPGQRLEWIGEINPTNGRTNYIEKFKSRATLTVDKSASTAYMELSSLRSEDTAVYYCARGTRAYHYWGQGTMVTVSSGGGGSGGGGSGGGGSDIQMTQSPSSLSASVGDRVTITCRASDNLYSNLAWYQQKPGKSPKLLVYDATNLADGVPSRFSGSGSGTDYTLTISSLQPEDFATYYCQHFWGTPLTFGQGTKVEIKGGGGSGGGGSGGGGSDIVMTQAPLSLPVSLGDQASISCRSSQSIVHSNGNTYLEWYLQKPGQSPKLLIYKVSNRFSGVPDRFSGSGSGTDFTLKISRVEAEDLGIYYCFQGSHVPPTFGGGTKLEIKRTVAAPSVFIFPPSDEQLKSGTASVVCLLNNFYPREAKVQWKVDNALQSGNSQESVTEQDSKDSTYSLSSTLTLSKADYEKHKVYACEVTHQGLSSPVTKSFNRGEC
notes: Format [LC-L1-scBM-L2-LC]
In the case of B4, the binding result in the test with recombinant Aβ1-42 is listed as “binds”.

B5: mAb158-scLc-8D3-Ig.10 (bispecific antibody, human IgG1, kappa)
heavy: not shown
chain: DIVMTQAPLSLPVSLGDQASISCRSSQSIVHSNGNTYLEWYLQKPGQSPKLLIYKVSNRFSGVPDRFSGSGSGTDFTLKISRVEAEDLGIYYCFQGSHVPPTFGGGTKLEIKRADAAPTVSIFPPSSEQLTSGGASVVCFLNNFYPKDINVKWKIDGSERQNGVLNSWTDQDSKDSTYSMSSTLTLTKDEYERHNSYTCEATHKTSTSPIVKSFNRNECGGGGSGGGGSGGGGSGGGGSGGGGSEVQLVESGGGLVQPGNSLTLSCVASGFTFSNYGMHWIRQAPKKGLEWIAMIYYDSSKMNYADTVKGRFTISRDNSKNTLYLEMNSLRSEDTAMYYCAVPTSHYVVDVWGQGVSVTVSSGGGGSGGGGSGGGGSDIQMTQSPASLSASLEEIVTITCQASQDIGNWLAWYQQKPGKSPQLLIYGATSLADGVPSRFSGSRSGTQFSLKISRVQVEDIGIYYCLQAYNTPWTFGGGTKLELKRGGGGSGGGGSDIVMTQAPLSLPVSLGDQASISCRSSQSIVHSNGNTYLEWYLQKPGQSPKLLIYKVSNRFSGVPDRFSGSGSGTDFTLKISRVEAEDLGIYYCFQGSHVPPTFGGGTKLEIKRADAAPTVSIFPPSSEQLTSGGASVVCFLNNFYPKDINVKWKIDGSERQNGVLNSWTDQDSKDSTYSMSSTLTLTKDEYERHNSYTCEATHKTSTSPIVKSFNRNEC
notes: Format [LC-L1-scBM-L2-LC]
Consider B5, for which the binding result (with recombinant Aβ1-42; in test [1]) was “binds” each time.

For the origin of these results see patent publication US20240141027A1 (BIOARCTIC, published 2024).
